Experimental data reported in US8409833B2 (Hokko Chemical Industry Co., Ltd., priority 2003, dated 2013).

Test: Reducing and oxidation activity of recombinant myo-inositol 2-dehydrogenase (BG10669 gene product)
Assay type: biochemical
Method: The myo-inositol 2-dehydrogenase reducing activity was measured as described below. 5 μl of a reaction solution (200 mM Tris buffer (pH 8.0), 2% of NADH, 1% of scyllo-inosose) was mixed with 5 μl of an enzyme solution, and the mixture was allowed to react at 36° C. for 30 min. Immediately after the reaction, 500 μl of water was added, and the absorbance at 340 nm was measured. From the blank value of a test tube prepared by using water instead of the enzyme solution, the decrease in the absorbance at 340 nm was measured. […] The reaction rate was calculated from the absorbance increments at the respective times.

B1: myo-inositol 2-dehydrogenase: recombinant myo-inositol 2-dehydrogenase, product of BG10669 gene derived from Bacillus subtilis 168 ATCC23857 (protein, UniProt P26935 1-344, looked up)
Inositol …: MSLRIGVIGTGAIGKEHINRITNKLSGAEIVAVTDVNQEAAQKVVEQYQLNATVYPNDDSLLADENVDAVLVTSWGPAHESSVLKAIKAQKYVFCEKPLATTAEGCMRIVEEEIKVGKRLVQVGFMRRYDSGYVQLKEALDNHVIGEPLMIHCAHRNPTVGDNYTTDMAVVDTLVHEIDVLHWLVNDDYESVQVIYPKKSKNALPHLKDPQIVVIETKGGIVINAEIYVNCKYGYDIQCEIVGEDGIIKLPEPSSISLRKEGRFSTDILMDWQRRFVAAYDVEIQDFIDSIQKKGEVSGPTAWDGYIAAVTTDACVKAQESGQKEKVELKEKPEFYQSFTTVQN
With B1 the “oxidation activity on myo-inositol” value (1% myo-inositol, NAD^+, pH 8.0, 25° C.) was “have an activity to oxidize myo-inositol”, the “oxidation activity on scyllo-inositol” value (1% scyllo-inositol, NAD^+, pH 8.0, 25° C.) was “no activity to oxidize scyllo-inositol” and the “reducing activity on scyllo-inosose” value (NADH, pH 8.0, 36° C., 30 min) was “have an activity to reduce scyllo-inosose”.
